Patent publication EP2353607A1

Assays:
[1] = target: integrin α5β1 on cultured endothelial cells (species of the cells not stated); test: cell-based or functional assay
[2] = target: integrin αvβ3 on cultured endothelial cells (species of the cells not stated); test: cell-based or functional assay

recombinant disintegrin domain (RDD) of metargidin (human ADAM-15)
endothelial cell migration (scratch-wound closure) in the presence of 15µg/ml RDD protein, as compared to untreated control culture [1]: 54.5%
endothelial cell migration (scratch-wound closure) in the presence of 15µg/ml RDD protein, as compared to untreated control culture [2]: 54.5%
